Patent US20130065819A1

Molecular target: HIV Tat transcription factor (HIV)
Test: cell-based or functional assay

Substance: human TOE1 (Target of Egr1) (from UniProt Q96GM8 1-510)
- decrease in Tat driven transactivation of the HIV LTR/TAR luciferase reporter in HeLa cells: 50 to 80%
